Data set [1] concerns the target Ca14-3-3-GFP (pepper (Capsicum annuum)). Kind of data set: MST; 20 nM Ca14-3-3-GFP as target, CaWRKY58-6 × His as ligand serially diluted (1.0E^-10 to 1.0E^-3 mM), 10 min in interaction buffer, Monolith NT.115, 50% IR laser power, ambient temperature.
The target in data set [2] is T1, CaWRKY58-6xHis (Capsicum annuum, UniProt Q5DJV3 1-378).
T1 sequence: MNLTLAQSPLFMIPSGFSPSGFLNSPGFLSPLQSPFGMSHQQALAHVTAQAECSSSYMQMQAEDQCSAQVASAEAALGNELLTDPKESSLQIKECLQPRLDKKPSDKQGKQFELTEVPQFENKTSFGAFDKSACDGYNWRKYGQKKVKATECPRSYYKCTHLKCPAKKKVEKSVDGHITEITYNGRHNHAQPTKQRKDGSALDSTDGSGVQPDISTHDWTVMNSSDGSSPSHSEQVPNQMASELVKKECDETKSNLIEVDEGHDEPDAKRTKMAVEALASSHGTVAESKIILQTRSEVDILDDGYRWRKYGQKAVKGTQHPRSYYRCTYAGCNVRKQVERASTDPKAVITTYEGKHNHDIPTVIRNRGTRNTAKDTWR
The data set can be described thus: EMSA; not stated in the material (EMSA as in cited works; Cy5 probes, Odyssey CLX). The settings on record: protein: recombinant; tags: 6xHis (pDEST17; text says N-terminal 6xHis); label: Cy5.

The values that follow come from article PMC7840522, “Ca14-3-3 Interacts With CaWRKY58 to Positively Modulate Pepper Response to Low-Phosphorus Starvation”.

For the molecule CaWRKY58-6 × His (GFP fusion protein), the equilibrium dissociation constant (Kd) (usually the equilibrium constant for the complex coming apart) in data set [1] is 210 nM.

B1: mCaPHR1-P (mCaPHR1-Pcy5) (dsDNA)
DNA 1: AAACTATGCTCCTACATCTAAATTT
DNA 2: AAATTTAGATGTAGGAGCATAGTTT
Consider B1, for which the binding result in data set [2] is listed as “no binding”.
